The results in this text go back to patent US20070014810A1, “Inducing cellular immune responses to human papillomavirus using peptide and nucleic acid compositions” (priority 2003, published 2007).

One experiment addresses HLA-A*0101 (human). The experiment is described as follows: inhibition of 125I-labelled probe peptide binding to purified HLA, gel filtration; standard peptide. A general note: In gel filtration, larger molecules generally elute earlier.
Experiment [1] deals with HLA-A*2902 (human). The description is as above.
The target of experiment [2] is HLA-A*2902 (human). The experiment is described as follows: inhibition of 125I-labelled probe peptide binding to purified HLA, gel filtration; standard peptide (allele listed again under supertype A24).
A further experiment deals with T1, HLA-DRB1*0901 (human).
T1 chain 1: not shown
T1 chain 2: not shown

Experiment [3] concerns the target HLA-A*3002 (human). The experiment is described as follows: inhibition of 125I-labelled probe peptide binding to purified HLA, gel filtration; standard peptide.
Experiment [4] deals with HLA-A*3002 (human). The experiment is described as follows: inhibition of 125I-labelled probe peptide binding to purified HLA, gel filtration; standard peptide (allele listed again under supertype A24).

Consider YTAVVPLVY (modifications not checked), for which the 50% inhibitory concentration (IC50) with HLA-A*0101 (human), in the experiment with HLA-A*2902 (human) [1] and with HLA-A*2902 (human) [2] was 5 nM throughout.
AKFVAAWTLKAAA (modifications not checked) yielded a half-inhibitory concentration (IC50) in the experiment with HLA-DRB1*0901 (human) of 75 nM.
RISGVDRYY (modifications not checked): the IC50 in the experiment with HLA-A*3002 (human) [3] and with HLA-A*3002 (human) [4] was 3 nM throughout.

As a reminder, the IC50 is the concentration that inhibits the measured activity by half.
